Series [1] concerns the target L-Ac-(FEFE)2-NH2. Put plainly: ITC.
For series [2], the target named is T1, L-Ac-(FEFE)2-NH2.
T1 peptide: Ac-FEFEFEFE-NH2
Put plainly: ITC.

Series [3] deals with the molecule itself. Put plainly: TEM + CD + IR spectroscopy of fibrils.
Series [4] concerns the molecule itself. The series is described as follows: isotope-edited IR spectroscopy.

Read-outs that look alike come from different tables or passages of the source.

As to D-Ac-(FKFK)2-NH2 (peptide), the dH in series [1] is -31.6 kcal/mol.

For Ac-FKFKFKFK-NH2 [L-Ac-(FKFK)2-NH2], in series [2], the dH is -40.9 ± 0.6 kcal/mol.

With Ac-FKFEFKFE-NH2 [L-Ac-(FKFE)2-NH2], the binding result in series [3] was “binds”.

For the molecule Ac-F(1‑13C)KFEFKF(1‑13C)E-NH2 [L-Ac-(FKFE)2-NH2 doubly 1-13C-labeled at Phe 1/Phe 7], in series [4], the binding result is reported as “binds”.

These data come from PMC7316157 (Journal of the American Chemical Society, 2012).
